US20200270588A1, “GLUCOSYL TRANSFERASE POLYPEPTIDES AND METHODS OF USE” (Syngenta Participations AG, priority 2017, published 2020)
Changes are numbered by the printed parent chain. Numbers in names are those of the source.

B1: A281R: bx9 SEQ ID NO:1 mutant (protein)
chain: MASSRTGAGAGGRVVVFPFPFQGHFNPVMRLARALHARGLAITVFHSGALDPADYPADYRFVPVTVEADPKLLASEDIAAIVTTLNASCDAPFRARLSALLAAEGRDSVRCVFTDVSWNAVLTASSDLGVPALGMMTASAASLRDYMAYRTLIDKGYLPVKEERKEDPVPELPPYLVKDLLRVDTSDLEEFAELLARTVTAARRASGLIFNTFPLIETDTLAEIHKALSVPVFAVAPLNKLVPTATASLHGVVQADRGCLQWLDTQQPGSVLYVSFGSMARMDPHEFVELAWGLADSKRPFVWVVRPNLIRGFESGALPDGVEDEVRGRGIVVAWAPQEEVLAHPAVGGFLTHNGWNSTVEAISEGVPMVCCPRHGDQFGNMRYVCDVWKVGTELVGEQLERGQVKAAIDRLFGTKEGEEIKERMKEFKIAAAKGIGIGVDVDETASPRTDLTDLVDLIKSF
modifications: Zea mays
B2: T220P: bx9 SEQ ID NO:1 mutant (protein)
chain: B1 chain with T220P, R281A
modifications: Zea mays
B3: T220F: bx9 SEQ ID NO:1 mutant (protein)
chain: B1 chain with T220F, R281A
modifications: Zea mays
B4: A334R: bx9 SEQ ID NO:1 mutant (protein)
chain: B1 chain with R281A, A334R
modifications: Zea mays
B5: A334Q: bx9 SEQ ID NO:1 mutant (protein)
chain: B1 chain with R281A, A334Q
modifications: Zea mays
B6: A202T: bx9 SEQ ID NO:1 mutant (protein)
chain: B1 chain with A202T, R281A
modifications: Zea mays
B7: I363M: bx9 SEQ ID NO:1 mutant (protein)
chain: B1 chain with R281A, I363M
modifications: Zea mays
B8: G376M: bx9 SEQ ID NO:1 mutant (protein)
chain: B1 chain with R281A, G376M
modifications: Zea mays
B9: A334N: bx9 SEQ ID NO:1 mutant (protein)
chain: B1 chain with R281A, A334N
modifications: Zea mays
B10: A202S: bx9 SEQ ID NO:1 mutant (protein)
chain: B1 chain with A202S, R281A
modifications: Zea mays
B11: A334S: bx9 SEQ ID NO:1 mutant (protein)
chain: B1 chain with R281A, A334S
modifications: Zea mays
B12: T220H: bx9 SEQ ID NO:1 mutant (protein)
chain: B1 chain with T220H, R281A
modifications: Zea mays
B13: A281K: bx9 SEQ ID NO:1 mutant (protein)
chain: B1 chain with R281K
modifications: Zea mays
B14: F19M: bx9 SEQ ID NO:1 mutant (protein)
chain: B1 chain with F19M, R281A
modifications: Zea mays
B15: I363L: bx9 SEQ ID NO:1 mutant (protein)
chain: B1 chain with R281A, I363L
modifications: Zea mays
B16: G376L: bx9 SEQ ID NO:1 mutant (protein)
chain: B1 chain with R281A, G376L
modifications: Zea mays
B17: A334L: bx9 SEQ ID NO:1 mutant (protein)
chain: B1 chain with R281A, A334L
modifications: Zea mays
B18: L143Y: bx9 SEQ ID NO:1 mutant (protein)
chain: B1 chain with L143Y, R281A
modifications: Zea mays
B19: V199M: bx9 SEQ ID NO:1 mutant (protein)
chain: B1 chain with V199M, R281A
modifications: Zea mays
B20: L143M: bx9 SEQ ID NO:1 mutant (protein)
chain: B1 chain with L143M, R281A
modifications: Zea mays
B21: T220W: bx9 SEQ ID NO:1 mutant (protein)
chain: B1 chain with T220W, R281A
modifications: Zea mays
B22: A334V: bx9 SEQ ID NO:1 mutant (protein)
chain: B1 chain with R281A, A334V
modifications: Zea mays

Assays:
[1] = UDP luminescence plate assay of E. coli extracts, mutants of SEQ ID No: 1, 2 mM metribuzin; assay type: biochemical, Zea mays; details: for SIGNAL: metribuzin signal of mutant divided by the signal of w/t bx9 / luminescence signal observed with 2 mM metribuzin / SIGNAL: metribuzin signal of mutant divided by metribuzin signal of w/t bx9 / luminescence signal with metribuzin: 2 mM metribuzin; for SIGNAL: metribuzin signal of mutant divided by the signal of w/t bx9: relative to bx9 w/t; for luminescence signal in the DMSO control: mutants of SEQ ID No: 1, DMSO in place of metribuzin (background UDP-glucose hydrolysis); for luminescence signal observed with 2 mM metribuzin: mutants of SEQ ID No: 1 in E. coli extracts, UDP luminescence; for luminescence signal with metribuzin: H24A null background 1.00E+05 not subtracted; for RATIO of the metribuzin signal to the DMSO signal: 2 mM metribuzin vs DMSO control, same mutant
In short: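 Extracts of E. coli BL21 DE3 expressing C-terminally His-tagged SEQ ID NO:1 variants incubated with 2 mM metribuzin; UDP formed read by UDP-Glo luminescence against a UDP standard curve, with optional 95 C stop. Mutants ranked by metribuzin/DMSO signal ratio and signal increase over wild-type bx9.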

[2] = UDP luminescence plate assay of E. coli extracts, saturation mutants of SEQ ID NO: 1, herbicide V; assay type: biochemical, Zea mays; details: improvement factor relative to w/t bx9 = 1.0, rounded to nearest 0.5; extract activity basis; compound V

Molecule | SIGNAL: metribuzin signal of mutant divided by the signal of w/t bx9 [1] | luminescence signal in the DMSO control [1] | luminescence signal observed with 2 mM metribuzin [1] | Most Preferred amino acid substitutions and (IF) based on RLU/min/ul [2] | SIGNAL: metribuzin signal of mutant divided by metribuzin signal of w/t bx9 [1] | luminescence signal with metribuzin [1] | Preferred amino acid substitutions and (IF) based on RLU/min/ul [2] | RATIO of the metribuzin signal to the DMSO signal [1]
B1 | 3.90 | 1.30E+06 | 1.09E+06 | 5.0 | – | – | – | –
B2 | 1.57 | 5.28E+05 | 4.40E+05 | H,P(4.0) | – | – | – | –
B3 | 2.22 | 7.87E+05 | 6.21E+05 | 3.5 | – | – | – | –
B4 | – | – | – | K,R(2.0) | 1.94 | 2.39E+05 | – | –
B5 | 1.22 | 4.88E+05 | 3.40E+05 | – | – | – | S,Q,V,L(1.5) | –
B6 | 0.93 | 2.52E+05 | 2.61E+05 | – | – | – | T,I,V,L,F(1.5) | –
B7 | 1.67 | 5.22E+05 | 4.68E+05 | L,M(3.0) | – | – | – | 0.90
B8 | 1.13 | 2.80E+05 | 3.15E+05 | – | – | – | C,M(1.0) | 1.13
B9 | – | – | – | – | 1.56 | 1.93E+05 | N(1.0) | –
B10 | 0.91 | 2.70E+05 | 2.53E+05 | – | – | – | S,I,C,M(1.0) | 0.94
B11 | – | – | – | – | 0.98 | 1.21E+05 | S,Q,V,L(1.5) | –
B12 | 1.82 | 5.47E+05 | 5.08E+05 | H,P(4.0) | – | – | – | –
B13 | 4.98 | 1.66E+06 | 1.39E+06 | 6.0 | – | – | – | –
B14 | 0.99 | 1.92E+05 | 2.76E+05 | – | 0.86 | 1.07E+05 | M(1.0) | –
B15 | 1.24 | 4.00E+05 | 3.47E+05 | L,M(3.0) | – | – | – | –
B16 | 1.27 | 3.59E+05 | 3.56E+05 | L(2.0) | – | – | – | 0.99
B17 | 1.51 | 5.19E+05 | 4.22E+05 | – | – | – | S,Q,V,L(1.5) | –
B18 | 1.06 | 2.77E+05 | 2.98E+05 | – | – | – | M,Y(1.0) | –
B19 | 0.92 | 2.53E+05 | 2.58E+05 | – | – | – | M,N(1.0) | 1.02
B20 | 1.02 | 2.74E+05 | 2.86E+05 | – | – | – | M,Y(1.0) | 1.04
B21 | 1.59 | 4.99E+05 | 4.44E+05 | 3.5 | – | – | – | –
B22 | 1.57 | 4.80E+05 | 4.40E+05 | – | – | – | S,Q,V,L(1.5) | –
